B1: Tetratricopeptide repeat protein 7A (Homo sapiens), Q9ULT0 (parent)
chain: MAAKGAHGSYLKVESELERCRAEGHWDRMPELVRQLQTLSMPGGGGNRRGSPSAAFTFPDTDDFGKLLLAEALLEQCLKENHAKIKDSMPLLEKNEPKMSEAKNYLSSILNHGRLSPQYMCEAMLILGKLHYVEGSYRDAISMYARAGIDDMSMENKPLYQMRLLSEAFVIKGLSLERLPNSIASRFRLTEREEEVITCFERASWIAQVFLQELEKTTNNSTSRHLKGCHPLDYELTYFLEAALQSAYVKNLKKGNIVKGMRELREVLRTVETKATQNFKVMAAKHLAGVLLHSLSEECYWSPLSHPLPEFMGKEESSFATQALRKPHLYEGDNLYCPKDNIEEALLLLLISESMATRDVVLSRVPEQEEDRTVSLQNAAAIYDLLSITLGRRGQYVMLSECLERAMKFAFGEFHLWYQVALSMVACGKSAYAVSLLRECVKLRPSDPTVPLMAAKVCIGSLRWLEEAEHFAMMVISLGEEAGEFLPKGYLALGLTYSLQATDATLKSKQDELHRKALQTLERAQQLAPSDPQVILYVSLQLALVRQISSAMEQLQEALKVRKDDAHALHLLALLFSAQKHHQHALDVVNMAITEHPENFNLMFTKVKLEQVLKGPEEALVTCRQVLRLWQTLYSFSQLGGLEKDGSFGEGLTMKKQSGMHLTLPDAHDADSGSRRASSIAASRLEEAMSELTMPSSVLKQGPMQLWTTLEQIWLQAAELFMEQQHLKEAGFCIQEAAGLFPTSHSVLYMRGRLAEVKGNLEEAKQLYKEALTVNPDGVRIMHSLGLMLSRLGHKSLAQKVLRDAVERQSTCHEAWQGLGEVLQAQGQNEAAVDCFLTALELEASSPVLPFSIIPREL

Variants of: B1
Conditions: with PI4K2A

Row | effect of a mutation on the interaction | Variant
1 | decreasing interaction | E71K
2 | decreasing interaction | A832T

Source: IntAct's records for PubMed 24417819
